Laboratory results published in patent US20230242645A1 (WUXI BIOLOGICS SHANGHAI, published 2023).

Columns and labels:
[1] = molecular target: T1, human PD-L1 extracellular domain, his tag (W315-hPro1.ECD.his) (human, UniProt Q9NZQ7 19-238); test: SPR (Biacore T200), antibody captured on anti-human Fc, antigen as analyte, 25 °C
T1 construct: extracellular domain; Analyte in SPR; also called W315-hPro1.ECD.his (PD-L1); ECD of PD-L1; not shown: C-terminal his tag (6xhis)
Method: Biacore T200, Series S Sensor Chip CM5, Amine Coupling Kit, and 10×HBS-EP were purchased from GE Healthcare. The antibody was captured onto the anti-human Fc IgG (Jackson, 109-005-098) surface immobilized on CM5-biosensor chip (GE Healthcare Inc.). The assay was performed at 25° C. with HBS-EP+ buffer (GE Healthcare Inc.) as running and dilution buffer. Serially diluted PD-L1 antigen or VEGF antigen (W315-hPro1.ECD.his or W325-hPro1.his) and running buffer were injected for an association phase and followed dissociation phase detection. Regeneration of the chip surface was reached by an injection of 10 mM Glycine, pH 1.5.
The on-rate constant (ka) and off-rate constant (kd) were also measured in the mean time. Final data of each interaction was deducted from reference channel and buffer channel data.

[2] = molecular target: T2, cynomolgus monkey PD-L1 on 293F cells (WBP315.293F.cPro1.2A) (cynomolgus monkey, UniProt G7PSE7 19-290); test: FACS on cynomolgus PD-L1 expressing 293F cells, FITC anti-human IgG
T2 construct: also called cynomolgus PD-L1; cyno PD-L1
T2 sequence (G7PSE7 entry or part of it limits assumed): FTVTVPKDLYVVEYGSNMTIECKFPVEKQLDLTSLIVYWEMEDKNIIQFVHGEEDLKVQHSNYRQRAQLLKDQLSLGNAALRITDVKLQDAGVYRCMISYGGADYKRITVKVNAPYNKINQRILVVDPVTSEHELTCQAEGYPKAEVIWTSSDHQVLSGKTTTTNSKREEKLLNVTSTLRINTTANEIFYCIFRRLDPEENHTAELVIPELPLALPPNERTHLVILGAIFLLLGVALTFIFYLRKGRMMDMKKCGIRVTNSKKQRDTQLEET
Method: (§1) Engineered cynomolgus monkey PD-L1 expressing cells (WBP315.293F.cPro1.2A) were seeded at 1×10⁵ cells/well in U-bottom 96-well plates. […] UIgG1 was added to the cells. Plates were incubated at 4° C. for 1 hour. After wash, FITC-labeled goat anti-human IgG (Jackson ImmunoResearch, 109-095-008) was added to each well and the plates were incubated at 4° C. for 1 hour. The binding of the antibodies onto the cells was tested by flow cytometry and the mean fluorescence intensity (MFI) was analyzed by FlowJo.

[3] = molecular target: T3, human PD-L1 on CHO-K1 cells (WBP315.CHO-K1.hPro1.C11) (human, UniProt Q9NZQ7 19-290); test: FACS competition on human PD-L1 expressing CHO-K1 cells: antibody premixed with mouse Fc tagged human PD-1 at 5 ug/ml, PE anti-mouse IgG; blocked ligand human PD-1
T3 construct: whole, on cells; also called engineered human PD-L1 expressing cells
T3 sequence (Q9NZQ7 19-290): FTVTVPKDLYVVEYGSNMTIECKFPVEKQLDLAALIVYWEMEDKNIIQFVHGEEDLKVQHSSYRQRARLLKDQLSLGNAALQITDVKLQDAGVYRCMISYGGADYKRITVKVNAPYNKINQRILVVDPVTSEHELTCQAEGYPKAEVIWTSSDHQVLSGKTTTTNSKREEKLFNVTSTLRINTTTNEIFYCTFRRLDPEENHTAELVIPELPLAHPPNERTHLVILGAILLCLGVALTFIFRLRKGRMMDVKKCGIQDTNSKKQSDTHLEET
Method: (§2) Human PD-L1 expressing CHO-K1 cells (WBP315.CHO-K1.hPro1.C11) were seeded at 1×10⁵ cells/well in 96-well U-bottom plates. […] After washing, PE-labeled anti-mouse IgG was added and incubated with cells at 4° C. for 45 minutes. Cells were washed twice and MFI of the cells was measured by a flow cytometer and analyzed by FlowJo.

[4] = molecular target: T4, mouse PD-L1 on 293F cells (WBP315.293F.mPro1.C1) (mouse, UniProt Q9EP73 19-290); test: FACS on mouse PD-L1 expressing 293F cells, FITC anti-human IgG
T4 construct: whole, on cells; also called engineered mouse PD-L1 expressing cells
T4 sequence (Q9EP73 19-290): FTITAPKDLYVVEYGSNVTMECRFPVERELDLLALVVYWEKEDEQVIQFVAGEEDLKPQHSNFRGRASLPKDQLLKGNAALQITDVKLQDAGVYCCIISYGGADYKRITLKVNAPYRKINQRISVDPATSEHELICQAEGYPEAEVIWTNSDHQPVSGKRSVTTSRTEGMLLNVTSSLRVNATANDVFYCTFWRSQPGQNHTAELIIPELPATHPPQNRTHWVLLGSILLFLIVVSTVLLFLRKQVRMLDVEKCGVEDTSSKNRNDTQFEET
Method: Engineered mouse PD-L1 expressing cells (WBP315.293F.mPro1.C1) were seeded at 1×10⁵ cells/well in U-bottom 96-well plates. Serial dilutions of the different antibodies were added to the cells. Plates were incubated at 4° C. for 1 hour. After wash, FITC-labeled goat anti-human IgG (Jackson ImmunoResearch, 109-095-008) was added to each well and the plates were incubated at 4° C. for 1 hour. […] UIgG1 onto the cells was tested by flow cytometry and the mean fluorescence intensity (MFI) was analyzed by FlowJo.

[5] = molecular target: T5, mouse VEGF (WBP325-mPro1, Sino Biological, 50159-MNAB) (mouse, UniProt Q00731-2 27-190); test: ELISA, plate coated with mouse VEGF, detection with anti-human IgG Fc-HRP
T5 construct: Bought protein
T5 sequence (looked up): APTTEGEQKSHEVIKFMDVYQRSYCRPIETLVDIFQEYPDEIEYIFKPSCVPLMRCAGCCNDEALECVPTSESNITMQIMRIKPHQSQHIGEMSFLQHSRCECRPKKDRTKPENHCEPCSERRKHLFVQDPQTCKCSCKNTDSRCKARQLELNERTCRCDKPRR

[6] = molecular target: T4, mouse PD-L1 on 293F cells …; test: FACS competition on mouse PD-L1 expressing cells: antibody premixed with mouse Fc tagged murine PD-1 at 5 ug/ml, PE anti-mouse IgG; blocked ligand mouse PD-1
Method: as §2, with “Mouse” for “Human”, “(WBP315.293F.mPro1.C1)” for “(WBP315.CHO-K1.hPro1.C11)”, “1 hour.” for “45 minutes.”

[7] = molecular target: T3, human PD-L1 on CHO-K1 cells …; test: FACS on human PD-L1 expressing CHO-K1 cells, FITC anti-human IgG
Method: as §1, with “human” for “cynomolgus monkey”, “(WBP315.CHO-K1.hPro1.C11)” for “(WBP315.293F.cPro1.2A)”

[8] = molecular target: T6, human PD-L1 extracellular domain, mouse Fc (PD-L1.ECD.mFc, W3153-hPro1.ECD.mFc) (human, UniProt Q9NZQ7 19-238); test: dual binding ELISA: plate coated with human VEGF, antibody titrated, then biotinylated PD-L1.ECD.mFc at 0.5 ug/ml
T6 construct: extracellular domain; also called WBP315-hPro1.ECD.mFc; antigen-2; not shown: mouse Fc tag at the C-terminus
T6 sequence (Q9NZQ7 19-238): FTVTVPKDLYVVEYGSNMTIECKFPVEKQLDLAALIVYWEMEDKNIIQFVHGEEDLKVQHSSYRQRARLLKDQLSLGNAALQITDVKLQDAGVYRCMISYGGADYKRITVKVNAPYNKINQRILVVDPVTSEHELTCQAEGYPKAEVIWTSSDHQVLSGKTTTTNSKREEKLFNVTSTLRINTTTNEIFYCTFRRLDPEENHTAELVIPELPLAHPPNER

T1 sequence (Q9NZQ7 19-238): as above

B1: W3156-AP3R2-1A3-z12-hIgG1 (Fc fusion)
chain: EVQLVESGGGLVQPGGSLRLSCAASGHFSNLAVNWFRQAPGKERELVAGILWSGGSTFYADSVKGRFTISRGNAENMLYLQMNSLRAEDTAVYYCNTGTNWGQGTLVTVSS
notes: VHH in hIgG1 format as tested; The construction of the hIgG1 format is not described; also called anti-PD-L1 VHH antibody; parental anti-PD-L1 antibody; not shown: human IgG1 part (hIgG1) named in the label only
- Kd [1]: 0.16 nM
- koff [1]: 0.000291 s⁻¹
- kon [1]: 1.82e+06 M⁻¹ s⁻¹
- EC50 (read off the curve) [2]: ~2 nM
- IC50 (read off the curve) [3]: ~0.04 nM
- EC50 (read off the curve) [4]: ~2 nM
- binding result [5]: no binding (tested: 100 nM)
- IC50 (read off the curve) [6]: ~2 nM
- EC50 (read off the curve) [7]: ~0.05 nM

B2: WBP325-BMK3.uIgG1 (Bevacizumab) (antibody, V domains shown)
VH: EVQLVESGGGLVQPGGSLRLSCAASGYTFTNYGMNWVRQAPGKGLEWVGWINTYTGEPTYAADFKRRFTFSLDTSKSTAYLQMNSLRAEDTAVYYCAKYPHYYGSSHWYFDVWGQGTLVTVSS
VL: DIQMTQSPSSLSASVGDRVTITCSASQDISNYLNWYQQKPGKAPKVLIYFTSSLHSGVPSRFSGSGSGTDFTLTISSLQPEDFATYYCQQYSTVPWTFGQGTKVEIK
notes: also called W325-BMK3.uIgG1; W325-BMK3
- binding result [8]: no binding (tested: 100 nM)
